Test results taken from paper PMC5318940.

Tests used:
[1] = biological target: histone H2A (bovine (calf thymus)) (UniProt P0C0S9)
[2] = biological target: M1 protein on the surface of live GAS M1T1 5448 wild type (group A Streptococcus (endogenous in strain M1T1 5448)) (UniProt Q99XV0); experiment: immunogold transmission electron microscopy; bacteria with 31.25 μg/mL histone H2A, 30 min at 37 °C, washed, fixed with 2% PFA; anti-histone H2A antibody and 15 nm immunogold secondary antibody; particles counted on >20 bacteria

| Substance | histone MIC for the GAS Δemm1 mutant with exogenous 10 μM recombinant NT fragment (rNT) [1] [fold] | gold particles per bacterium (gold-particles per bacterium) [2] |
| --- | --- | --- |
| M1 protein fragment A+B (residues 42-194), recombinant NT fragment (from UniProt Q99XV0 42-194) (domain or fragment) | 2 |  |
| histone H2A (from UniProt P0C0S9 1-130) (natural protein) |  | > 30 |
